Columns and labels:
[1] = biological target: T1, human CD137 expressed on cells (human, UniProt Q07011 24-255); test: flow cytometry (FACS), MFI, CHO cells expressing human CD137
T1 construct: whole, on cells; also called 4-1BB; TNFRSF9
Procedure: (§1) Exemplary anti-PD-1/CD137 bi-specific antibodies were analyzed by FACS for their binding properties to human PD-1 and/or human CD137 expressed on CHO cells. Briefly, cultured cells were harvested, counted and cell viability was evaluated using the Trypan Blue exclusion method. Viable cells were then adjusted to 2×10⁶ cells per mL in PBS containing 2% BSA. 100 μL of this cell suspension were further aliquoted per well into a V-bottom 96-well plate. […] After incubation for 2 hours at 4° C., cells were centrifuged (3 min, 1000× g), washed with 250 μL/well BSA-containing FACS Stain Buffer, resuspended and incubated for an additional 1 hour at 4° C. with 100 μL/well fluorochrome-conjugated anti-IgG antibody for detection of the bisepecific antibody. Cells were then washed with 250 μL/well BSA-containing FACS Stain Buffer, resuspended in 100 μL/well FACS Stain Buffer, acquired and analyzed using a FACS machine. Binding of the bispecific antibodies to human PD-1 or human CD137 expressing CHO cells were evaluated and the mean fluorescence intensity is plotted in histograms or dot plots.

[2] = biological target: T2, human CD40 expressed on CHO cells (human, UniProt P25942 21-277); test: FACS on CHO cells expressing human CD40 (MFI)
T2 construct: whole, on cells
Procedure: as §1, with “Anti-CD40/CD137” for “Exemplary anti-PD-1/CD137”, “CD40” for “PD-1”, “1000×g),” for “1000× g),”

[3] = biological target: T3, human PD-1 expressed on cells (human, UniProt Q15116 25-288); test: flow cytometry (FACS), MFI, CHO cells expressing human PD-1
T3 construct: whole, on cells; also called human PD-1 over-expressed on the CHO cells; Jurkat/NFkB-Luci/PD-1 cells
Procedure: as §1

T1 sequence (Q07011 24-255): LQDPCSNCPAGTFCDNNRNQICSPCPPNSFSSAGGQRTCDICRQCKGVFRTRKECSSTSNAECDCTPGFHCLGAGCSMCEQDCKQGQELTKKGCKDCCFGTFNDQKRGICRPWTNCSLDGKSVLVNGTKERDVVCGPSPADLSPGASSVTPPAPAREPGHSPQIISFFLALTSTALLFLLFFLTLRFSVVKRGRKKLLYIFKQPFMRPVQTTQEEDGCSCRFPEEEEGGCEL
T2 sequence (P25942 21-277): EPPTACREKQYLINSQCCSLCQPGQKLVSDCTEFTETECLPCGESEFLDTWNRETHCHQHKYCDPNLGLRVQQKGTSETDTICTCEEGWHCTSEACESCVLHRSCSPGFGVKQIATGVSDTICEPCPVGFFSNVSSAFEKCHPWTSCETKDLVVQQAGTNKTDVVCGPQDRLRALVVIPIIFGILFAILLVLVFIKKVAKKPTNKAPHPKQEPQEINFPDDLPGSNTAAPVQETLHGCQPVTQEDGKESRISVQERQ
T3 sequence (Q15116 25-288): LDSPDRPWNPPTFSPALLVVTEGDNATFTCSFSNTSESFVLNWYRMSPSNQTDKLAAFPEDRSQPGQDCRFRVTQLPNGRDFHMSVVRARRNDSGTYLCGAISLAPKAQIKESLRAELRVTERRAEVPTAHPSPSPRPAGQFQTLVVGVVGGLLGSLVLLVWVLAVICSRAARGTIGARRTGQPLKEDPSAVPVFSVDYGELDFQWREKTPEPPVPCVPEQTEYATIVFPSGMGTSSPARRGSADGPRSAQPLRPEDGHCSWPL

EC50 (read off the curve) [1] [µg/mL] | EC50 (read off the curve) [2] [µg/mL] | EC50 (read off the curve) [3] [µg/mL] | Binder
~0.1 |  |  | Ly461 (bispecific antibody, human IgG1, kappa, Three-chain format: Ly1630 heavy chain fused to Ly516 light chain; Ly1630 light chain; Ly516 VH-CH1) heavy: QVQLVQSGAEVKKPGASVKVSCKASGYTFAGFEMHWVRQAPGQGLEWMGAIDPKTGGTDYNQKFKDRVTMTRDTSISTAYMELSRLRSDDTAVYYCARDLGYFDVWGQGTLVTVSSASTKGPSVFPLAPSSKSTSGGTAALGCLVKDYFPEPVTVSWNSGALTSGVHTFPAVLQSSGLYSLSSVVTVPSSSLGTQTYICNVNHKPSNTKVDKKVEPKSCDKTHTCPPCPAPELLGPSVFLFPPKPKDTLMISRTPEVTCVVVDVSHEDPEVKFNWYVDGVEVHNAKTKPREEQYNSTYRVVSVLTVLHQDWLNGKEYKCKVSNKALPAPIEKTISKAKGQPREPQVYTLPPSREEMTKNQVSLTCLVKGFYPSDIAVEWESNGQPENNYKTTPPVLDSDGSFFLYSKLTVDKSRWQQGNVFSCSVMHEALHNHYTQKSLSLSPGGGGGSGGGGSGGGGSGGGGSNIQMTQSPSSLSASVGDRVTITCKAGQNVNNYLAWYQQKPGKAPKVLIFNANSLQTGVPSRFSGSGSGTDFTLTISSLQPEDFATYYCQQYNSWPTFGGGTKVEIKRTVAAPSVFIFPPSDEQLKSGTASVVCLLNNFYPREAKVQWKVDNALQSGNSQESVTEQDSKDSTYSLSSTLTLSKADYEKHKVYACEVTHQGLSSPVTKSFNRGEC light: DIQMTQSPSSLSASVGDRVTITCRASQDIRSNLNWYQQKPGGAVKLLIYYTSRLHSGVPSRFSGSGSGTDYTLTISSLQPEDFATYFCQQSEKLPRTFGGGTKVEIRRTVAAPSVFIFPPSDEQLKSGTASVVCLLNNFYPREAKVQWKVDNALQSGNSQESVTEQDSKDSTYSLSSTLTLSKADYEKHKVYACEVTHQGLSSPVTKSFNRGEC QVTLKESGPALVKPTQTLTLTCTFSGFSLSTSGTCVSWIRQPPGKALEWLATICWEDSKGYNPSLKSRLTISKDTSKNQAVLTMTNMDPVDTATYYCARREDSGYFWFPYWGQGTLVTVSSASTKGPSVFPLAPSSKSTSGGTAALGCLVKDYFPEPVTVSWNSGALTSGVHTFPAVLQSSGLYSLSSVVTVPSSSLGTQTYICNVNHKPSNTKVDKKVEPKSCDK
~0.1 |  |  | Ly515 (bispecific antibody, human IgG2, kappa, Three-chain format: Ly1630 heavy chain fused to Ly516 light chain; Ly1630 light chain; Ly516 VH-CH1) heavy: QVQLVQSGAEVKKPGASVKVSCKASGYTFAGFEMHWVRQAPGQGLEWMGAIDPKTGGTDYNQKFKDRVTMTRDTSISTAYMELSRLRSDDTAVYYCARDLGYFDVWGQGTLVTVSSASTKGPSVFPLAPCSRSTSESTAALGCLVKDYFPEPVTVSWNSGALTSGVHTFPAVLQSSGLYSLSSVVTVPSSNFGTQTYTCNVDHKPSNTKVDKTVERKCCVECPPCPAPPVAPSVFLFPPKPKDTLMISRTPEVTCVVVDVSHEDPEVQFNWYVDGVEVHNAKTKPREEQFNSTFRVVSVLTVVHQDWLNGKEYKCKVSNKGLPAPIEKTISKTKGQPREPQVYTLPPSREEMTKNQVSLTCLVKGFYPSDIAVEWESNGQPENNYKTTPPMLDSDGSFFLYSKLTVDKSRWQQGNVFSCSVMHEALHNHYTQKSLSLSPGGGGGSGGGGSGGGGSGGGGSNIQMTQSPSSLSASVGDRVTITCKAGQNVNNYLAWYQQKPGKAPKVLIFNANSLQTGVPSRFSGSGSGTDFTLTISSLQPEDFATYYCQQYNSWPTFGGGTKVEIKRTVAAPSVFIFPPSDEQLKSGTASVVCLLNNFYPREAKVQWKVDNALQSGNSQESVTEQDSKDSTYSLSSTLTLSKADYEKHKVYACEVTHQGLSSPVTKSFNRGEC light: DIQMTQSPSSLSASVGDRVTITCRASQDIRSNLNWYQQKPGGAVKLLIYYTSRLHSGVPSRFSGSGSGTDYTLTISSLQPEDFATYFCQQSEKLPRTFGGGTKVEIRRTVAAPSVFIFPPSDEQLKSGTASVVCLLNNFYPREAKVQWKVDNALQSGNSQESVTEQDSKDSTYSLSSTLTLSKADYEKHKVYACEVTHQGLSSPVTKSFNRGEC QVTLKESGPALVKPTQTLTLTCTFSGFSLSTSGTCVSWIRQPPGKALEWLATICWEDSKGYNPSLKSRLTISKDTSKNQAVLTMTNMDPVDTATYYCARREDSGYFWFPYWGQGTLVTVSSASTKGPSVFPLAPSSKSTSGGTAALGCLVKDYFPEPVTVSWNSGALTSGVHTFPAVLQSSGLYSLSSVVTVPSSSLGTQTYICNVNHKPSNTKVDKKVEPKSCDK
 | ~0.09 |  | Ly253-G2 (antibody, human IgG2, kappa, V domains shown, also called anti-CD40 antibody) VH: not shown VL: DIQMTQSPSSVSASVGDRVTITCRASQGIYSWLAWYQQKPGKAPNLLIYTASTLQSGVPSRFSGSGSGTDFTLTISSLQPEDFATYYCQQANIFPLTFGGGTKVEIKR
~0.5 |  | ~0.2 | Ly514 (bispecific antibody, human IgG2, kappa, Three-chain format: Ly516 heavy chain fused to Ly1630 light chain; Ly516 light chain; Ly1630 VH-CH1) heavy: QVTLKESGPALVKPTQTLTLTCTFSGFSLSTSGTCVSWIRQPPGKALEWLATICWEDSKGYNPSLKSRLTISKDTSKNQAVLTMTNMDPVDTATYYCARREDSGYFWFPYWGQGTLVTVSSASTKGPSVFPLAPCSRSTSESTAALGCLVKDYFPEPVTVSWNSGALTSGVHTFPAVLQSSGLYSLSSVVTVPSSNFGTQTYTCNVDHKPSNTKVDKTVERKCCVECPPCPAPPVAPSVFLFPPKPKDTLMISRTPEVTCVVVDVSHEDPEVQFNWYVDGVEVHNAKTKPREEQFNSTFRVVSVLTVVHQDWLNGKEYKCKVSNKGLPAPIEKTISKTKGQPREPQVYTLPPSREEMTKNQVSLTCLVKGFYPSDIAVEWESNGQPENNYKTTPPMLDSDGSFFLYSKLTVDKSRWQQGNVFSCSVMHEALHNHYTQKSLSLSPGGGGGSGGGGSGGGGSGGGGSDIQMTQSPSSLSASVGDRVTITCRASQDIRSNLNWYQQKPGGAVKLLIYYTSRLHSGVPSRFSGSGSGTDYTLTISSLQPEDFATYFCQQSEKLPRTFGGGTKVEIRRTVAAPSVFIFPPSDEQLKSGTASVVCLLNNFYPREAKVQWKVDNALQSGNSQESVTEQDSKDSTYSLSSTLTLSKADYEKHKVYACEVTHQGLSSPVTKSFNRGEC light: NIQMTQSPSSLSASVGDRVTITCKAGQNVNNYLAWYQQKPGKAPKVLIFNANSLQTGVPSRFSGSGSGTDFTLTISSLQPEDFATYYCQQYNSWPTFGGGTKVEIKRTVAAPSVFIFPPSDEQLKSGTASVVCLLNNFYPREAKVQWKVDNALQSGNSQESVTEQDSKDSTYSLSSTLTLSKADYEKHKVYACEVTHQGLSSPVTKSFNRGEC QVQLVQSGAEVKKPGASVKVSCKASGYTFAGFEMHWVRQAPGQGLEWMGAIDPKTGGTDYNQKFKDRVTMTRDTSISTAYMELSRLRSDDTAVYYCARDLGYFDVWGQGTLVTVSSASTKGPSVFPLAPSSKSTSGGTAALGCLVKDYFPEPVTVSWNSGALTSGVHTFPAVLQSSGLYSLSSVVTVPSSSLGTQTYICNVNHKPSNTKVDKKVEPKSCDK

Source: patent US20230406950A1 (LYVGEN BIOPHARMA, published 2023)
